Experimental data from PMC5304201 (2017).

Biological target: Amyloid-beta 42 oligomers Abeta42 (Homo sapiens, UniProt P05067, biotinylated Abeta42 oligomers, HA-tagged NRX1beta)
Test: cell surface binding assay, Scatchard

Kd: 184 nM
B1: Neurexin-1beta S4(-) (protein)
chain: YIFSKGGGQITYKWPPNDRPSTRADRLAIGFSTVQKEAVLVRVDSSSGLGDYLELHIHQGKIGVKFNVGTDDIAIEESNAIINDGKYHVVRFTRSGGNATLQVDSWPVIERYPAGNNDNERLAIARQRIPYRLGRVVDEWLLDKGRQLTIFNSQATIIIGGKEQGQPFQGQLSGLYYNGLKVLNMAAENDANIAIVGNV
